Reference: patent US20030207290A1
Where no end group is shown, it is not given here.

T1: EGFR-pY1068 phosphopeptide, LPVPE(p)…
T1 sequence (peptide, phosphotyrosine at (p)Y (residue 6 of the printed peptide; EGFR Tyr1068)): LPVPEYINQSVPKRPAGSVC


Assays:
[1] = target: T1, EGFR-pY1068 phosphopeptide, LPVPE(p)…; experiment: ECL 7-spot plate screen, peptide-BSA spot, biotinylated TnT protein, Ru-streptavidin; signal normalized in two steps
[2] = target: Pool C of peptide:BSA conjugates (EGFR-pTyr1068, IkBa-24ppC, Smad3C); experiment: ECL 4-spot binding assay with pooled peptide-BSA conjugates, biotinylated TnT protein, Sulfo-TAG streptavidin
[3] = target: Pool A of peptide:BSA conjugates (EGFR-pTyr1148, IkBa-24ppC, Myc-p58Tp62S); experiment: as above
[4] = target: Pool D of peptide:BSA conjugates (EGFR-pTyr992, EGFR-pTyr1068, Myc-p58Tp62S); experiment: as above
[5] = target: Pool B of peptide:BSA conjugates (EGFR-pTyr992, EGFR-pTyr1148, Smad3C); experiment: as above
BSA (control coating) = BSA (control coating) (UniProt P02769); experiment: ECL plate binding assay: BSA control on electrode, biotinylated TnT protein, Sulfo-TAG streptavidin
[6] = target: Grb2 (EST clone IMAGE 4398016), in vitro translated, biotin-labelled (UniProt P62993); experiment: competition: immobilized Grb2, +EGFR, un-phosphorylated peptide in solution; bound EGFR detected by its kinase activity on pEY
Grb2 (EST clone IMAGE 4398016), in vitro translated, biotin-labelled, sequence (P62993 whole entry): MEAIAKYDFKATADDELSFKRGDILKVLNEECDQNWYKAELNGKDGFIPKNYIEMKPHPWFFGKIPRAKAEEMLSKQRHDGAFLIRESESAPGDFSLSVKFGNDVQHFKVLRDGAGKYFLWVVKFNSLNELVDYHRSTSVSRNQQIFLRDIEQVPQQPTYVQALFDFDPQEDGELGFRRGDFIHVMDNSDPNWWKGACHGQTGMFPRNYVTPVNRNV

BSA (control coating), sequence (P02769 25-607 limits assumed): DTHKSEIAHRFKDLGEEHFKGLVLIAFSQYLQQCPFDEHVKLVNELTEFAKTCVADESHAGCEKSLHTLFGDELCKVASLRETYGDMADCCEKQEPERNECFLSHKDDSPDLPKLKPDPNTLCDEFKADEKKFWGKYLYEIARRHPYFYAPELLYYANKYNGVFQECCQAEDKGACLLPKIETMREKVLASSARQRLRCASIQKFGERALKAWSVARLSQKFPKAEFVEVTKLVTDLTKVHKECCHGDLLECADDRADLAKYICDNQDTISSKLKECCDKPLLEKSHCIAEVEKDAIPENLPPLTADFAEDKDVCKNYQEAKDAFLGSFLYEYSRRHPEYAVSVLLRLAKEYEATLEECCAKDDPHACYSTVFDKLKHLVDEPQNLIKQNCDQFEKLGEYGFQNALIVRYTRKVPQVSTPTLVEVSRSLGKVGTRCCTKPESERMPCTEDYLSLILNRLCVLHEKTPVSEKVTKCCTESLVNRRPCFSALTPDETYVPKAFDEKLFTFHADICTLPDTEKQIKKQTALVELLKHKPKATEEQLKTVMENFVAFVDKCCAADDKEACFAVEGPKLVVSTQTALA

Row | Binder | normalized ECL signal [1] | ECL signal [2] | ECL signal [3] | ECL signal [4] | ECL signal [5] | Average ECL signal (BSA (control coating)) | ECL signal of EGFR bound to Grb2 in presence of the peptide [6]
1 | BMX non-receptor tyrosine kinase (EST clone IMAGE 3919253), in vitro translated, biotin-labelled (enzyme, UniProt P51813 1-675, looked up, biotin on some lysine residues (incorporated at random from biotin-Lys-tRNA)) MDTKSILEELLLKRSQQKKKMSPNNYKERLFVLTKTNLSYYEYDKMKRGSRKGSIEIKKIRCVEKVNLEEQTPVERQYPFQIVYKDGLLYVYASNEESRSQWLKALQKEIRGNPHLLVKYHSGFFVDGKFLCCQQSCKAAPGCTLWEAYANLHTAVNEEKHRVPTFPDRVLKIPRAVPVLKMDAPSSSTTLAQYDNESKKNYGSQPPSSSTSLAQYDSNSKKIYGSQPNFNMQYIPREDFPDWWQVRKLKSSSSSEDVASSNQKERNVNHTTSKISWEFPESSSSEEEENLDDYDWFAGNISRSQSEQLLRQKGKEGAFMVRNSSQVGMYTVSLFSKAVNDKKGTVKHYHVHTNAENKLYLAENYCFDSIPKLIHYHQHNSAGMITRLRHPVSTKANKVPDSVSLGNGIWELKREEITLLKELGSGQFGVVQLGKWKGQYDVAVKMIKEGSMSEDEFFQEAQTMMKLSHPKLVKFYGVCSKEYPIYIVTEYISNGCLLNYLRSHGKGLEPSQLLEMCYDVCEGMAFLESHQFIHRDLAARNCLVDRDLCVKVSDFGMTRYVLDDQYVSSVGTKFPVKWSAPEVFHYFKYSSKSDVWAFGILMWEVFSLGKQPYDLYDNSQVVLKVSQGHRLYRPHLASDTIYQIMYSCWHELPEKRPTFQQLLSSIEPLREKDKH | 3 |  |  |  |  |  | 
2 | Phospholipase C gamma 1 (PLCγ) (EST clone IMAGE 4419252), in vitro translated, biotin-labelled (enzyme, UniProt P19174 1-1290, looked up, biotin on some lysine residues (incorporated at random from biotin-Lys-tRNA)) MAGAASPCANGCGPGAPSDAEVLHLCRSLEVGTVMTLFYSKKSQRPERKTFQVKLETRQITWSRGADKIEGAIDIREIKEIRPGKTSRDFDRYQEDPAFRPDQSHCFVILYGMEFRLKTLSLQATSEDEVNMWIKGLTWLMEDTLQAPTPLQIERWLRKQFYSVDRNREDRISAKDLKNMLSQVNYRVPNMRFLRERLTDLEQRSGDITYGQFAQLYRSLMYSAQKTMDLPFLEASTLRAGERPELCRVSLPEFQQFLLDYQGELWAVDRLQVQEFMLSFLRDPLREIEEPYFFLDEFVTFLFSKENSVWNSQLDAVCPDTMNNPLSHYWISSSHNTYLTGDQFSSESSLEAYARCLRMGCRCIELDCWDGPDGMPVIYHGHTLTTKIKFSDVLHTIKEHAFVASEYPVILSIEDHCSIAQQRNMAQYFKKVLGDTLLTKPVEISADGLPSPNQLKRKILIKHKKLAEGSAYEEVPTSMMYSENDISNSIKNGILYLEDPVNHEWYPHYFVLTSSKIYYSEETSSDQGNEDEEEPKEVSSSTELHSNEKWFHGKLGAGRDGRHIAERLLTEYCIETGAPDGSFLVRESETFVGDYTLSFWRNGKVQHCRIHSRQDAGTPKFFLTDNLVFDSLYDLITHYQQVPLRCNEFEMRLSEPVPQTNAHESKEWYHASLTRAQAEHMLMRVPRDGAFLVRKRNEPNSYAISFRAEGKIKHCRVQQEGQTVMLGNSEFDSLVDLISYYEKHPLYRKMKLRYPINEEALEKIGTAEPDYGALYEGRNPGFYVEANPMPTFKCAVKALFDYKAQREDELTFIKSAIIQNVEKQEGGWWRGDYGGKKQLWFPSNYVEEMVNPVALEPEREHLDENSPLGDLLRGVLDVPACQIAIRPEGKNNRLFVFSISMASVAHWSLDVAADSQEELQDWVKKIREVAQTADARLTEGKIMERRKKIALELSELVVYCRPVPFDEEKIGTERACYRDMSSFPETKAEKYVNKAKGKKFLQYNRLQLSRIYPKGQRLDSSNYDPLPMWICGSQLVALNFQTPDKPMQMNQALFMTGRHCGYVLQPSTMRDEAFDPFDKSSLRGLEPCAISIEVLGARHLPKNGRGIVCPFVEIEVAGAEYDSTKQKTEFVVDNGLNPVWPAKPFHFQISNPEFAFLRFVVYEEDMFSDQNFLAQATFPVKGLKTGYRAVPLKNNYSEDLELASLLIKIDIFPAKENGDLSPFSGTSLRERGSDASGQLFHGRAREGSFESRYQQPFEDFRISQEHLADHFDSRERRAPRRTRVNGDNRL |  | 1550 ECL signal | 239 ECL signal | 3390 ECL signal | 2780 ECL signal | 342 ECL signal | 
3 | LPVPEYINQSVPKRPAGSVC (not fully specified) [un-phosphorylated EGFR 1063-1081 peptide (Peptide, SEQ ID No. 8)] |  |  |  |  |  |  | 34100 ECL signal
4 | Shc1 (EST clone IMAGE 3907115), in vitro translated, biotin-labelled (protein, UniProt P29353-2 1-473, looked up, biotin on some lysine residues (incorporated at random from biotin-Lys-tRNA)) MNKLSGGGGRRTRVEGGQLGGEEWTRHGSFVNKPTRGWLHPNDKVMGPGVSYLVRYMGCVEVLQSMRALDFNTRTQVTREAISLVCEAVPGAKGATRRRKPCSRPLSSILGRSNLKFAGMPITLTVSTSSLNLMAADCKQIIANHHMQSISFASGGDPDTAEYVAYVAKDPVNQRACHILECPEGLAQDVISTIGQAFELRFKQYLRNPPKLVTPHDRMAGFDGSAWDEEEEEPPDHQYYNDFPGKEPPLGGVVDMRLREGAAPGAARPTAPNAQTPSHLGATLPVGQPVGGDPEVRKQMPPPPPCPGRELFDDPSYVNVQNLDKARQAVGGAGPPNPAINGSAPRDLFDMKPFEDALRVPPPPQSVSMAEQLRGEPWFHGKLSRREAEALLQLNGDFLVRESTTTPGQYVLTGLQSGQPKHLLLVDPEGVVRTKDHRFESVSHLISYHMDNHLPIISAGSELCLQQPVERKL |  | 24 ECL signal | 260 ECL signal | 26 ECL signal | 318 ECL signal | 342 ECL signal | 
